B1: S-Pegylated papain: papain modified at its thiol with a 5 kDa PEG chain through a disulfide bond (conjugate, UniProt P00784 134-345, looked up)
Papain: IPEYVDWRQKGAVTPVKNQGSCGSCWAFSAVVTIEGIIKIRTGNLNEYSEQELLDCDRRSYGCNGGYPWSALQLVAQYGIHYRNTYPYEGVQRYCRSREKGPYAAKTDGVRQVQPYNEGALLYSIANQPVSVVLEAAGKDFQLYRGGIFVGPCGNKVDHAVAAVGYGPNYILIKNSWGTGWGENGYIRIKRGTGNSYGVCGLYTSSFYPVKN
modifications: S-PEG 5 kDa
notes: papain modified at its thiol with a 5 kDa PEG chain through a disulfide bond

Experiments:
[1] = Acid denaturation: residual amidase activity after incubation in acidic buffer; type: physicochemical; conditions: 40 µM proteinase, 25°C
Description: Indeed : • 1. […] Similar results were obtained in the case of papain.
Time course dependence of acid denaturation of S-methylthio PP III (---) and S-pegyl (5000) thio PP III (―) at various pH and at 25°C.
At various time intervals, aliquot were removed and assayed for residual amidase activity using the assay method N° 3.

[2] = Infrared spectroscopy (Fourier self-deconvolution, curve fitting of the amide I region): content of secondary structures; type: physicochemical; conditions: FTIR amide I region; counter-ions K+ and Cl-; pH 5.0
Description: Spectra were recorded with a Perkin-Elmer infrared spectrometer 983 G equipped with a Perkin-Elmer microspecular reflectance accessory (ref. P.E. 221-0357). The internal reflection element was a Germanium ATR plate (50 x 20 x 2 mm, Harrick EJ 2121) with an aperture angle of 45° yielding 25 […] reflections. The mean stan rate was 15.5 cm⁻¹/minute and up to 20 accumulations were performed when necessary to improve the signal to noise ratio. The spectrophotometer was continuously purged with air dried on a silica gel column (5 x 130 cm) at a flow rate of 7 l/minute. Spectra were recorded at a nominal resolution of 2 cm⁻¹ and encoded every 0.5 cm⁻¹. At the end of the scan, they are transferred from the memory of the spectrophotometer to an Olivetti M 40 itself coupled to an Olivetti M 24 computer Spectra were Fourier transformed and stored for subsequent treatments.
In both cases the S-pegylated protein eluted from the CM-Sephadex C-50 before the irreversibly oxidized material. […] Indeed : 1. […] The proportions of the different secondary structures were determined, as previously described by Cabiaux et al, 1989, J. Biol. Chem., 264:4928-4938, using the frequency regions for the different structures as follows : 1661-1647 cm⁻¹ : α-helix; 1689-1682 + 1637-1615 cm⁻¹ : β-sheet; 1644.5-1637.7 cm⁻¹ : random and 1682-1661 cm⁻¹ : β-turn. […]

Molecule | lowest pH at which solutions remain stable (acid denaturation) [1] | PERCENTAGE OF Random [2] | PERCENTAGE OF α-Helix [2] | PERCENTAGE OF β-Sheet [2] | PERCENTAGE OF β-Turns [2]
S-Pegylated Papaya Pectinase III: papaya proteinase III S-pegylated with PEG 5 kDa disulfide derivative | 2.6 | 8.3 | 27.9 | 36.1 | 27.7
B1 |  | 8.2 | 28.2 |  | 27.0

From EP0622394A1, “Reversible modification of sulfur-containing molecules with polyalkylene glycol derivatives and their use” (S.A. LABORATOIRES S.M.B., priority 1993, dated 1994)
